Read-outs that look alike come from different tables or passages of the source.
What was measured:
YTHDF2 (Homo sapiens) = conditions: co-localization with RIG-I and YTHDF2 in HeLa
RIG-I (Homo sapiens) = conditions: immunofluorescence co-localization with RIG-I and K63-polyubiquitin in HeLa

Substance | activity (YTHDF2 (Homo sapiens); 10% m6A random) | activity (YTHDF2 (Homo sapiens)) | activity (RIG-I (Homo sapiens))
10% m6A circFOREIGN | 65.3% | – | –
FITC-circFOREIGN | – | 33.8% | 85.5%

— patent publication US20220288176
